Experimental data: patent publication US9200040B2, “Specific binding agents of human angiopoietin-2” (Amgen Inc., priority 2001, dated 2015)
Like-named read-outs stand apart in the source and are kept apart here. Primed or numbered codes have the meaning given here. Where no end group is shown, it is not given here. [ ]: non-standard residue; d: D form. Fc(6) = Fc vehicle: non-antigen-binding antibody fragment (from proteolytic digestion of an antibody) fused to the peptide; Fc(8) = Fc vehicle: non-antigen-binding antibody fragment fused to the peptide (peptibody); Fc(5) = non-antigen-binding fragment of an antibody (vehicle) fused to the peptide; Fc(9) = antibody Fc fragment, the non-antigen-binding fragment

Columns and labels:
hAng-1 = target: T1, hAng-1 (Homo sapiens, UniProt Q15389); test: Neutralization ELISA (Example 2); type: binding; conditions: Table 5; about 1 nM Tie-2-Fc
T1 sequence (Q15389 16-498): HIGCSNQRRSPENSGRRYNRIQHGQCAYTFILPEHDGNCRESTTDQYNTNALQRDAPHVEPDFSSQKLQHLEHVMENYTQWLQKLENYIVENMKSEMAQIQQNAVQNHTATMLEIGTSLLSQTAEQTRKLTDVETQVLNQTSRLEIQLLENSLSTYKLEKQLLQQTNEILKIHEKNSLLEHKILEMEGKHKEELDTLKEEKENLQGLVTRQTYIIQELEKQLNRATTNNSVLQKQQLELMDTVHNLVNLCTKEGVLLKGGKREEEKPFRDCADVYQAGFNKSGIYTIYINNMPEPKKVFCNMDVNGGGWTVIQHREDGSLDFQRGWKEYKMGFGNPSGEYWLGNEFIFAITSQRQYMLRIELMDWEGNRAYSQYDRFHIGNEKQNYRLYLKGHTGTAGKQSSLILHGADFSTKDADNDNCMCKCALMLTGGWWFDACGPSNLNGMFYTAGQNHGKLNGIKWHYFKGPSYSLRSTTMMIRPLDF

hAng-2 = target: T2, hAng-2 (Homo sapiens, UniProt O15123); test: Affinity BIAcore (Example 2); type: binding; conditions: Table 6
T2 construct: conditioned media of human 293T cells transfected with full length human Ang-2 DNA; made in house; host or cells: conditioned media
T2 sequence (O15123 19-496): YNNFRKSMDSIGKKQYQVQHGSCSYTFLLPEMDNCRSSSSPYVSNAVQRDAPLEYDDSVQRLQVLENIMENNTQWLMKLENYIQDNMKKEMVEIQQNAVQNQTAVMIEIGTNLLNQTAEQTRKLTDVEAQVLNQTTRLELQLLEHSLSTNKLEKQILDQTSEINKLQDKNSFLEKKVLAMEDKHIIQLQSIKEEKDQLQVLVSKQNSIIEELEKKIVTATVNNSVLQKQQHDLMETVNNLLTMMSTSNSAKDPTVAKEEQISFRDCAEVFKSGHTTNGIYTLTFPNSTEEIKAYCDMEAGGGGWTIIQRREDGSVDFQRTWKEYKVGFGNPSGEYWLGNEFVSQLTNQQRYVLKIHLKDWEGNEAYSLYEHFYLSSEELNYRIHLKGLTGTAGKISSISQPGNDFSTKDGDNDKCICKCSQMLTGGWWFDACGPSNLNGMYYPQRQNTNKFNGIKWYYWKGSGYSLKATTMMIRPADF
Procedure: (§1) Binding assays were carried out by first capturing about 100 Ru of each candidate anti-Ang-2 peptibody to the immobilized Protein G, after which various concentrations (0-100 nM) of huAng-2 or mAng-2 were injected over the bound antibody surface at a flow rate of 50 μl/min for 3 minutes. Peptibody binding kinetic parameters including ka (association rate constant), kd (dissociation rate constant) and KD (dissociation equilibrium constant) were determined using the BIA evaluation 3.1 computer program (Biacore, Inc.). Lower dissociation equilibrium constants indicated greater affinity of the peptibody for Ang-2.

mAng-2 = target: T3, mAng-2 (Mus musculus, UniProt O35608); test: Affinity BIAcore (Example 2); type: binding, murine; conditions: Table 6
T3 construct: made in house
T3 sequence (O35608 19-496): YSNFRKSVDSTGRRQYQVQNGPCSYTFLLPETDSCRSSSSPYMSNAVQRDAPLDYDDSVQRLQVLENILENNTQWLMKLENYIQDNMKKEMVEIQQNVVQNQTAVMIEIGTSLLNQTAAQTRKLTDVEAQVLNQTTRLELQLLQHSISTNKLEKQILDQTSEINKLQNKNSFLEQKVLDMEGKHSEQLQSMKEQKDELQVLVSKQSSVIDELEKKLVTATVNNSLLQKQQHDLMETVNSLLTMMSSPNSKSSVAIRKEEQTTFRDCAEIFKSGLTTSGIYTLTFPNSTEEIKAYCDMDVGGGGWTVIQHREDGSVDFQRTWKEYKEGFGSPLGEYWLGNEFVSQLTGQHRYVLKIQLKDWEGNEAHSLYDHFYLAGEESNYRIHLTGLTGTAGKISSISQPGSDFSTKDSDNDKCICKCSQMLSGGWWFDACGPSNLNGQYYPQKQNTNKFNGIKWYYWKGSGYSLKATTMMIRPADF
Procedure: as §1

huAng2 = target: T4, huAng2 (Homo sapiens, UniProt O15123); test: BIAcore binding to huAng2 (Example 9); conditions: Table 8
T4 construct: purchased R&D Systems BNO12103A
T4 sequence (O15123 68-496 limits assumed): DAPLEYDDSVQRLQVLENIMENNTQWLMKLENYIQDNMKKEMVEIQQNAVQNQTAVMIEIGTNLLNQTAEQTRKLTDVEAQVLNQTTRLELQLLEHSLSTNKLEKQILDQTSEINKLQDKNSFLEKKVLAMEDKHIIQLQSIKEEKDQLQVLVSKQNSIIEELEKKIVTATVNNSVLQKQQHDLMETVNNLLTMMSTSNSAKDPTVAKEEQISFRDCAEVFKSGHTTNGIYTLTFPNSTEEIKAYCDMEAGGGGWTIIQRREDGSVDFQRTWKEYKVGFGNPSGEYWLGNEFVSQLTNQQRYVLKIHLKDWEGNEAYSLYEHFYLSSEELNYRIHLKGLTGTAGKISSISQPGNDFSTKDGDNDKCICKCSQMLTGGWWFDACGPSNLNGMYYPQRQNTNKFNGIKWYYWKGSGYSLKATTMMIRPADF
Procedure: Six samples of anti-Ang2 peptibodies were tested for their binding activity to huAng2 (R&D Systems, BNO12103A) on BIAcore. Protein G was immobilized to a CM5 chip according to the standard amine-coupling protocol (BIAcore Inc.), and the peptibodies were then injected over a protein G surface for capturing (RL˜100 Ru). To test binding between hAng2 and the captured peptibody, 0.3 nM to 40 nM of huAng2 was injected over the captured peptibody surfaces, and binding sensorgrams were analyzed using BIAevaluation 3.0 (BIAcore Inc.).

Colo-205 tumor = conditions: for tumor growth vs. vehicle control: from study day 14: 2×Con4-C 350 μg/mouse s.c. twice a week, p<0.0001
Procedure: Female nude mice were injected subcutaneously with 2×10^6 Colo-205 cells plus Matrigel (2:1) on study day 0. At day 3, the Ang-2 peptibodies L1-7-N, L1-21-N, Con4-C, and 2×Con4-C were administered subcutaneously at the dose of […], twice a week.
Female nude mice were injected subcutaneously with 2×10^6 Colo-205 cells plus Matrigel (2:1) on study day 0.
Female nude mice were injected subcutaneously with 2×10^6 Colo-205 cells plus Matrigel (2:1) on study day 0. At day 3, Ang-2 peptibody 2×Con4-C or control peptibody were administered subcutaneously at the dose of 350 μg/day. Tumors from groups treated with control peptibody (as described in Table 5) were harvested either at Day 14 (size-matched control) or Day 18 (time-matched control). Tumors from 2×Con4(C) treated group were then harvested at Day 18. Tumor volumes were recorded at regular intervals, as shown.
Female nude mice were injected subcutaneously with 2×10^6 Colo-205 cells plus Matrigel (2:1) on study day 0. Treatment with 350 μg/mouse, s.c. twice a week, of the Ang-2 peptibody 2×Con4-C, or equivalent control peptibody started either at study day 3, 10 or 15. […] The results are set forth in FIG. 8 (body weights not shown).
Female nude mice were injected subcutaneously with 2×10^6 Colo-205 cells plus Matrigel (2:1) on study day 0. At study day 14, treatments were started with a) 350 μg/mouse, s.c. twice a week, of the Ang-2 peptibody 2×Con4-C, b) 20 mg/kg qwx3 i.p. of taxotere, or c) a combination of both.
Female nude mice were injected subcutaneously with 2×10^6 Colo-205 cells plus Matrigel (2:1) on study day 0. At study day 14 started treatments with a) 350 μg/mouse, s.c. twice a week, of the Ang-2 peptibody 2×Con4-C, b) 50 mg/kg qdx5 i.p. of 5-FU, or c) a combination of both.

| Molecule | hAng-1 IC 50 (hAng-1) | ka (huAng2) [M⁻¹ s⁻¹] | kd (huAng2) [s⁻¹] | also measured |
| --- | --- | --- | --- | --- |
| MGAQKFNPLDELEETLYEQFTFQQLEGGGGG-Fc [L1 (N)] | No In- | – | – | hAng-2 ka (hAng-2): 290000 M⁻¹ s⁻¹; hAng-2 kd (hAng-2): 0.00091 s⁻¹; mAng-2 ka (mAng-2): 560000 M⁻¹ s⁻¹; mAng-2 kd (mAng-2): 0.00023 s⁻¹ |
| MGAQ-HTFQPLDELEETLYYQWLYDQL LEGGGGG-Fc (MGAQHTFQPLDELEETLYYQWLYDQLLEGGGGG[Fc]; also: Fc vehicle domain fused (peptibody)) [L1-21 (N)] | – | 560000 | 0.00014 | – |
| MGAQ-FDYCEGVEDPFTFGCDNHLE-GGGGG-Fc (MGAQFDYCEGVEDPFTFGCDNHLEGGGGG[Fc(6)]; cysteine pairing not given here) [12-9 (N)] | No In- | – | – | hAng-2 ka (hAng-2): 120000 M⁻¹ s⁻¹; hAng-2 kd (hAng-2): 0.001 s⁻¹; mAng-2 ka (mAng-2): 720000 M⁻¹ s⁻¹; mAng-2 kd (mAng-2): 0.00023 s⁻¹ |
| MGAQ-KRPCEEIFGGCTYQLEGGGGG-Fc (MGAQKRPCEEIFGGCTYQLEGGGGG[Fc(5)]; not fully specified (bridges); printed as MGAQ-KRPCEEIFGGCTYQLEGGGGG-Fc; cysteine pairing not given here) [Con1 (N)] | No In- | – | – | – |
| MGAQ-KRPCEEMWGGCNYDLEGGGGG-Fc (MGAQKRPCEEMWGGCNYDLEGGGGG[Fc(5)]; not fully specified (bridges); printed as MGAQ-KRPCEEMWGGCNYDLEGGGGG-Fc; cysteine pairing not given here) [8-8 (N)] | No In- | – | – | – |
| O=c1[nH]cc(F)c(=O)[nH]1 [Peptibody 5-FU, 5-FU, reference compound] | – | – | – | tumor growth vs. vehicle control (Colo-205 tumor; Example 19b, 5-FU 50 mg/kg qdx5 i.p., or both): Significant differences in tumor growth; transient reduction in body weight (Colo-205 tumor; Example 19b, at study day 20, followed by complete recovery): 18% |
| MGAQ-HQICKWDPWTCKHWLEGGGGG-Fc (MGAQHQICKWDPWTCKHWLEGGGGG[Fc(5)]; not fully specified (bridges); printed as MGAQ-HQICKWDPWTCKHWLEGGGGG-Fc; cysteine pairing not given here) [8-14 (N)] | No In- | – | – | – |
| MGAQ-QKFQPLDELEQTLYEQFMLQQA LEGGGGG-Fc (MGAQQKFQPLDELEQTLYEQFMLQQALEGGGGG[Fc]; also: Fc vehicle domain fused (peptibody)) [L1-10 (N)] | – | 150000 | 0.00011 | – |
| M-Fc-GGGGGAQ-PIRQEECDWDPWTCEHMWEV-LE (M[Fc(8)]GGGGGAQPIRQEECDWDPWTCEHMWEVLE; cysteine pairing not given here; also: Fc vehicle fused at position 2) [Con4-44 (C)] | – | 290000 | 5.9e-05 | – |
| MGAQ-QYGCDGFLYGCMINLE-GGGGG-Fc (MGAQQYGCDGFLYGCMINLEGGGGG-{Fc(9)}; not fully specified (bridges); printed as MGAQ-QYGCDGFLYGCMINLE-GGGGG-Fc; cysteine pairing not given here) [C17 (N)] | No In- | – | – | – |
| CC(=O)O[C@@]12CO[C@@H]1C[C@H](O)[C@@]1(C)C(=O)[C@H](O)C3=C(C)[C@@H](OC(=O)[C@H](O)[C@@H](NC(=O)OC(C)(C)C)c4ccccc4)C[C@@](O)([C@@H](OC(=O)c4ccccc4)[C@H]21)C3(C)C [taxotere, reference compound] | – | – | – | tumor growth vs. vehicle control (Colo-205 tumor; Example 19a, taxotere 20 mg/kg qwx3 i.p., or both): Significant differences in tumor growth |
| MGAQ-TNFMPMDDLEQRLYEQFILQQG-LEGGGGG-Fc (MGAQTNFMPMDDLEQRLYEQFILQQGLEGGGGG-Fc) [L1-7 (N)] | – | 370000 | 8.7e-05 | – |
